By Ki is commonly meant the equilibrium dissociation constant of an inhibitor or competing ligand from its target. The Kd is a measure of binding affinity in units of concentration. A high value points to a looser complex.

For 13 molecules, Ki and Kd results are on record in patent US20200338203A1 (Bicycle, published 2020).

Numbered stars: 1 amine (or outer) side, 2 acyl side, 3 side chain; on linkers, the order of the positions; unused ones are H or OH. Bridge positions count the residues as written; N and C are the ends. Square brackets hold non-standard residues; d marks the D form. Ends that are not written are not given here. 1Nal = N[C@@H](Cc1cccc2ccccc12)C(=O)O; TBMB = c1c(C[*:1])cc(C[*:3])cc1C[*:2]; Gly(cPent) = N[C@H](C(=O)O)C1CCCC1; Tle = CC(C)(C)[C@H](N)C(=O)O; AF488 = AlexaFluor488 label; Aib = CC(C)(N)C(=O)O; βAla = NCCC(=O)O; Sar = CNCC(=O)O

Sequence of Human & mouse EphA3 (Human & mouse) (P29320 21-541): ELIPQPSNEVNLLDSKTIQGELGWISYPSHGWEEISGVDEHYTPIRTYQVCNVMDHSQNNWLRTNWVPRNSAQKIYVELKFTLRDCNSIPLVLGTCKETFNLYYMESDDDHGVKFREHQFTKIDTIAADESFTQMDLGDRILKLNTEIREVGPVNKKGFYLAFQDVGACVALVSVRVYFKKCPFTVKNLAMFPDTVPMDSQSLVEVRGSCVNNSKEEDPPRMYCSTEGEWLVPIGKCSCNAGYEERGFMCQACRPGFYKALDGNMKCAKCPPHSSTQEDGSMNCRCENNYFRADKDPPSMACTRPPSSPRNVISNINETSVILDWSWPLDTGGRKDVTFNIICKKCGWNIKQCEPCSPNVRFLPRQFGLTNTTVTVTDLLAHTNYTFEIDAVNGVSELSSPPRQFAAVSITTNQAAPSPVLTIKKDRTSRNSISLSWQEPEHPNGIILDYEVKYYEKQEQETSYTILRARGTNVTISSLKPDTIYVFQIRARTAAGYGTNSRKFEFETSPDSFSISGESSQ
T2 sequence (P29317 24-537): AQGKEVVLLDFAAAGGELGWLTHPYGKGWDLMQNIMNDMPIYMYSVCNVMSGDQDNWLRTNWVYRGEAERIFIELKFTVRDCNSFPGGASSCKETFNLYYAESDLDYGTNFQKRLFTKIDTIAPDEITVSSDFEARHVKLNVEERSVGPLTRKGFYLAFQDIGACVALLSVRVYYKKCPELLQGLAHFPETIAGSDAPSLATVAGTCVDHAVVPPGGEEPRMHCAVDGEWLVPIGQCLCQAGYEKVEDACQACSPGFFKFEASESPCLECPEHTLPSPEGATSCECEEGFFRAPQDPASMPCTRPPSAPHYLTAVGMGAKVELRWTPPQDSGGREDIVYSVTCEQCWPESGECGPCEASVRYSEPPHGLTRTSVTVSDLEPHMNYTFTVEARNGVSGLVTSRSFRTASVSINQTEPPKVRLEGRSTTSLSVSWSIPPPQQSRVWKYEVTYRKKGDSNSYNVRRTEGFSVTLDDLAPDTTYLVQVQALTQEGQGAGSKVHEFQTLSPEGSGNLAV

The target in one test is T1, Human EphA2 (Human, UniProt P29317 24-537).
T1 construct: extracellular domain; also called EphA2 (Ecto), Human
T1 sequence (P29317 24-537): as above
Put plainly: FP competition; competitor: fluorescent Compound 66. As for the experimental part: (§1) Peptides without a fluorescent tag were tested in competition with a peptide with a fluorescent tag and a known Kd (Table 2). Peptides were diluted to an appropriate concentration in assay buffer as described in the direct binding assay with a maximum of 5% DMSO, then serially diluted 1 in 2. Five μL of diluted peptide was added to the plate followed by 10 μL of human or mouse EphA2 (Table 1) at a fixed concentration which was dependent on the fluorescent peptide used (Table 2), then 10 μL fluorescent peptide added. Measurements were conducted as for the direct binding assay, however the gain was determined prior to the first measurement.
Turning to [Sar][Sar]ACPWG[dA]FWCPVNRPGC (linker 4-11-18 via TBMB, bicyclic peptide) [Compound 297], the Ki is 1500 nM. Still for that read-out and setting: with [Sar][Sar]ACPW[dA]PFWCPVNRPGC (linker 4-11-18 via TBMB, bicyclic peptide) [Compound 296] the figure was 1000 nM. Still for that read-out and setting: with [Sar][Sar]ACPWGPFWCPVNR[dA]GC (linker 4-11-18 via TBMB, bicyclic peptide) [Compound 105] the figure was 471 nM. [Sar][Sar]ACPWGPAWCPVNRPGC (linker 4-11-18 via TBMB, bicyclic peptide) [Compound 83]: the inhibition constant Ki stood at 288 nM. Same read-out and setting: then [Sar][Sar]ACPWGAFWCPVNRPGC (linker 4-11-18 via TBMB, bicyclic peptide) [Compound 289], with 1100 nM. Take [Sar][Sar]ACPWGPFWCPVNRPAC (linker 4-11-18 via TBMB, bicyclic peptide) [Compound 111]: the Ki was 238 nM. As for [Sar][Sar]ACPWGPFWCPVNRAGC (linker 4-11-18 via TBMB, bicyclic peptide) [Compound 104], the Ki worked out at 194 nM. ACPWGPFWCPVARPGC (N-terminal Sar2 before the entry; three Cys cyclised on TBMB, bicyclic peptide) [Compound 101]: the Ki was determined as 265 nM. On the same count and under the same terms, then [Sar][Sar]ACPWGPFWCPANRPGC (linker 4-11-18 via TBMB, bicyclic peptide) [Compound 292], with 954 nM; and [Sar][Sar]ACAWGPFWCPVNRPGC (linker 4-11-18 via TBMB, bicyclic peptide) [Compound 286], with 886 nM. The same measure, in the same setting: with [Sar][Sar]ACPWGPFWCPVNAPGC (linker 4-11-18 via TBMB, bicyclic peptide) [Compound 293] the figure was 711 nM; with [Sar][Sar]ACPWGPFWCPVN[dA]PGC (linker 4-11-18 via TBMB, bicyclic peptide) [Compound 302], 1410 nM.

The next test concerns the target T2, Human EphA2 (Ecto) (Human, UniProt P29317 24-537).
T2 construct: extracellular domain
Put plainly: FP direct binding.
Molecule {AF488-βAla}-[Sar][Sar][Sar][Sar][Sar][Sar][Sar][Sar][Sar][Sar]H[dD][Gly(cPent)]PC[Aib][1Nal]G[Aib]F[1Nal]CP[Tle]NR[Aib][dD]C (linker 15-22-29 via TBMB) [Compound 146] registered an equilibrium dissociation constant (Kd) of 2.19 nM.

A further test addresses Human & mouse EphA3 (Human & mouse) (UniProt P29320). Put plainly: FP direct binding, selectivity.
The molecule {AF488-βAla}-[Sar][Sar][Sar][Sar][Sar][Sar][Sar][Sar][Sar][Sar]H[dD][Gly(cPent)]PC[Aib][1Nal]G[Aib]F[1Nal]CP[Tle]NR[Aib][dD]C (linker 15-22-29 via TBMB) [Compound 146] gave an equilibrium dissociation constant (Kd) of 7190 nM.

A further test concerns the target T1, Human EphA2. Put plainly: FP competition; competitor: fluorescent Compound 18. As for the experimental part: as §1
As to [Sar][Sar]ACPWGPFWCPVNR[dA]GC (linker 4-11-18 via TBMB, bicyclic peptide) [Compound 105], the inhibition constant (Ki) amounted to 677 nM. The same measure, in the same setting: with [Sar][Sar]ACPWGPAWCPVNRPGC (linker 4-11-18 via TBMB, bicyclic peptide) [Compound 83] the figure was 199 nM; with [Sar][Sar]ACPWGAFWCPVNRPGC (linker 4-11-18 via TBMB, bicyclic peptide) [Compound 289], over 1000 nM; with [Sar][Sar]ACPWGPFWCPVNRPAC (linker 4-11-18 via TBMB, bicyclic peptide) [Compound 111], 108 nM. As to [Sar][Sar]ACPWGPFWCPVNRAGC (linker 4-11-18 via TBMB, bicyclic peptide) [Compound 104], the inhibitory constant (Ki) stood at 124 nM. The same measure, in the same setting: with ACPWGPFWCPVARPGC (N-terminal Sar2 before the entry; three Cys cyclised on TBMB, bicyclic peptide) [Compound 101] the figure was 293 nM; with [Sar][Sar]ACPWGPFWCPVN[dA]PGC (linker 4-11-18 via TBMB, bicyclic peptide) [Compound 302], over 1000 nM.
